Test results reported in article PMC3619129.

Target: F-actin (human (endogenous in T cells)) (UniProt P60709)

Row | mobile fraction (MF) of the EGFP-tagged ezrin by FRAP in human T cells, no pretreatment, with SDF-1 | mobile fraction (MF) of the EGFP-tagged ezrin by FRAP in human T cells, no pretreatment, without SDF-1 | mobile fraction (MF) of the EGFP-tagged ezrin by FRAP in human T cells, pretreated with latrunculin A (1 μM, 30 min), with SDF-1 | mobile fraction (MF) of the EGFP-tagged ezrin by FRAP in human T cells, pretreated with latrunculin A (1 μM, 30 min), without SDF-1 | Substance
1 | 0.64 | 0.74 | 0.79 | 0.81 | wild type (WT) ezrin-EGFP (from UniProt P15311 1-586) (natural protein)
2 | 0.18 | 0.25 | 0.81 | 0.72 | T567D ezrin-EGFP (from UniProt P15311 1-586) (natural protein)
